According to the DeepSol protein solubility set:

Test: soluble on expression in E. coli; label from the status in PepcDB or PDB records

Sequence	soluble on expression in E. coli
MRTVVVIPTYNERDTIERLINDVLAQDKDIHVLVVDDNSPDGTGEIVDRLSEGKGRVHVLHRPGKMGLGSAYRQGFAAALAMDADFIVEMDADYSHDPATLPRFLEAMEGCDLVIGSRYLNGISVVNWPLRRLMLSYFANWYTRLITGLRIMDCTSGFKCFRRRVIESIDMSTIRSDGYSFQIEMNYRCVEKGFQVREIPIIFIDRRSGSSKMSKKIVREAVFMVWKLKLGSVFGALFRLEHHHHHH	not soluble
MPYAIDFGTTNTVIARWNEATRQGNLIDLPSLSHPLGDSGPLVPSLLYVENAALGQVAIAREVLDRGRDISTDTRFFKNFKRGIGVAVQGFLPQLDGHTLSLETLGQWYLDKLIRILTEQEGQGPDCLALTVPVDSFESYRHWLSHTCRSWGVEEVRLVDEPTAAALGYGVGDASQILVLDFGGGTVDFSWVQLGDRGQKGRSGFLLKWGGILGGSKAEEKSALAKVLAKAGANLGGSDIDYWISEYFTEAQGLQVSPWIRRLAERLKIALGEAEEATEVYFDDQALESYEFQLRRSDLTEILQQRQFFERLTALWEQVQQTAQRRGLTPANLDAVLVVGGTSQLPMVQDWINAQFPAGKIRNQQPFGAIALGALQIYQGREVQDYLYHSYGVRYWNRRKNSHNWHPIIKNGQTYPMAEPIELTLGASLDNQPSIELIVGELGSSIGATEVYFDGNQLITRVLENQAFTVQPLNDRNGARQIAQLSPPGVPGGDRIKVKFWVDDQRYLRLTVEDLLQQKLLLENQVVAQLRLEHHHHHH	not soluble
MNPKIEDSEFNWENEDIVMKLVDEKGKAHPVSKAELLESLESRKLGLETRVLDKYHENHVAFENVLVLDAPQDLETIVNLLLPWYMGKTLTLFEGPLNYPDSSRLAQIISKHNVDIVLGSDYNYSIPNPEYLKLFPVPSLKLVDLPNFESISNYLTISR	not soluble
MAHHHHHHMLSGITFEIFLFNFEIYHDFSSPLLFSLAIRIVIACGIPSMTNSSVQQVGCRVTYIWLSGKDSHHDIRSKDRTIYISPDDLEKDPKELLRLDMFPVWNFDGSSTGQAEGLITEIHIKPVNAYHCCIPRASSSVPWIVVLAECFLPTGEPTPDNSRAVARRIFDKGLGTHPWFGMEQEYFLVKDGHPYGWCPTCPPASQGPYYCATGSECIRGRKHVDLHYEVCLQMGLKICGTNAEVAFGQWEFQVGPCEGIEMGDQLVVARWVLLRILELEGLDADFRAKPILGDWNGSGLHTNFSTEATRAPGGLEVIYQYIERLKETSSKDIIFYGVDNNERLIGKHETSKLNETTFGIGTRGTSIRIPTAVAAAQSGYMEDRRPAAGADPYLVSSRLFASCLSVDAVELDFSSPRHEREWMASTSKV	not soluble
MGSDKIHHHHHHMEVVGRSRAKAIIETHLNDSLVYFSDHVRILKCNPYCTGVTYLKEHGVYQWIFQVNDPRENPITAVFFVTQNEEHLDSSRTVPAGPVSEEESFPDSAVSGRCIQWVNAPQVPDVPLKEKNTFVGQANTRICLYPLEDRRTEVHFETDITLDFELSFPLNLMPEGILKFMTEAVMSKIMQQATESMLCQVQSDLCCCTTAELDASGGKV	not soluble
MGSDKIHHHHHHMAIDLLNIARTGVLASQSQLGVTSNNIANANTVGYHRQVATQTTLDSQRLGSSFYGTGTYVSDVKRIYNDYAARELRIGQTTLSAAEASYGKLSELDQIFSQIGKVVPQSLTDLFAGLNSLADLPADLGIRSSTLNDAKQLANSLNQMQSTLNGQLNQTNDQITGMTKRINEISTELANLNLELMKSPNQDPILLDKQDALVQELSQYAQVNVIPLENGAKSIMLGGSIMLVSGEVAMSMSTATGDPFPNELQLMSSIGSQSVKADPSKLGGQLGALFEYRDQTLVPASLELDQLALGVADSFNKLQAQGFDLNGQVGANMFKDINDPLMSLGRVGGFTDNTGNATLGVNIDDTSALTGGSYELSFTAPSTYELRDTQRARLLRLP	not soluble
MATLFIADLHLQTEEPAIVAGFLRFLAVEARQADALYILGDLFEAWIGDDDPNPLHREMAVAIKSLVDSGVPCFFIHGNRDFLIGKRFARESGMILLPQEKVLDLYGRNVLIMHGDTLCTDDAGYQAFRAKVHNPWVQRLFLTLPLFIRRRIAARMRAGSKAANSSKSLDIMDVNAQTVVAEMEKHRVQWLIHGHTHRPAVHELSANDQPAFRVVLGAWHHEGSMVKVTPDNVELIAFPLLEHHHHHH	not soluble
